Assay results taken from patent US20030198640A1 (Human Genome Sciences, published 2003).

Assays:
Experiment in all cases: flow cytometry on transiently transfected cells
[1] = molecular target: T1, DcR1 on transiently transfected cells (UniProt O14798 26-236, limits assumed)
T1 construct: whole, on cells
T1 sequence (looked up): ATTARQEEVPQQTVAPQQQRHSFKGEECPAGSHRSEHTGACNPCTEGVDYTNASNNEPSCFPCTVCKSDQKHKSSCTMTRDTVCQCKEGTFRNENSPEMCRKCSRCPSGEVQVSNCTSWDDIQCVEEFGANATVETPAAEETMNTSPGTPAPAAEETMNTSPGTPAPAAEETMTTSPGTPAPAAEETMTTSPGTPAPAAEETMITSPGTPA
Experimental: (§1) One million cells, in 0.1 ml of FACS buffer (PBS, 0.1% BSA, 0.1% NaN₃), were incubated with 0.1-1 microgram of protein or antibody at RT for 15 min. The cells were washed with 3 ml of FACS buffer, reacted with biotinylated primary antibody, and stained with PE-conjugated secondary antibody at RT for 15 min. Cells were then washed again, resuspended in 0.5 microgram/ml of propidium iodide, and live cells were gated and analyzed on a FACScan using the CellQuest software (BD Biosciences).

[2] = molecular target: T2, 4-1BB on transiently transfected cells (UniProt Q07011 24-255)
T2 construct: whole, on cells
T2 sequence (Q07011 24-255): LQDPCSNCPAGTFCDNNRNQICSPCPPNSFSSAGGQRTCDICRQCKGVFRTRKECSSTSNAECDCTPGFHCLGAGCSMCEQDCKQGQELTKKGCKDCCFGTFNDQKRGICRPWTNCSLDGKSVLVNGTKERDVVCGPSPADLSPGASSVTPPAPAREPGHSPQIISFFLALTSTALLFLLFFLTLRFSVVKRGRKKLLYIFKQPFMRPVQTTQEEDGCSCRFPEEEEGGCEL
Experimental: as §1

[3] = molecular target: T3, DR4 on transiently transfected cells (UniProt O00220 24-468, limits assumed)
T3 construct: whole, on cells
T3 sequence (looked up): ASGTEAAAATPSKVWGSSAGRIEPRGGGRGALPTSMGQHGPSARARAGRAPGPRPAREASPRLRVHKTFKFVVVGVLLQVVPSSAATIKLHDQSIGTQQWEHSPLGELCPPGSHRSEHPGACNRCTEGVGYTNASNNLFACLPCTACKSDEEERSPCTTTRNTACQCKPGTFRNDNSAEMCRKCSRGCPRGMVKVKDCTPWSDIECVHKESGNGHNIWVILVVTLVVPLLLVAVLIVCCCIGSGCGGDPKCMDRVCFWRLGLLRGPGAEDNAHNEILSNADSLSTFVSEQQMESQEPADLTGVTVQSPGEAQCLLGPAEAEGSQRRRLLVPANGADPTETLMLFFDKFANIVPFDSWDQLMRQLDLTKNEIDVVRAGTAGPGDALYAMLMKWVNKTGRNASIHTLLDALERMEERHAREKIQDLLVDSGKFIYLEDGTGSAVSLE
Experimental: as §1

[4] = molecular target: T4, CD27 on transiently transfected cells (UniProt P26842 20-260, limits assumed)
T4 construct: whole, on cells
T4 sequence (looked up): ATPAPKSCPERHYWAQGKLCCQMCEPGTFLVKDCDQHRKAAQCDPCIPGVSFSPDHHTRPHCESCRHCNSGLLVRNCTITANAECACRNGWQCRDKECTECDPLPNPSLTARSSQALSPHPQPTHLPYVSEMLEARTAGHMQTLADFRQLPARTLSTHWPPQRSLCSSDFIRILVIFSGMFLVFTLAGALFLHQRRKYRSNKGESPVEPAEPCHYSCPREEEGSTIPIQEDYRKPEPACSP
Experimental: as §1

[5] = molecular target: T5, HveA on transiently transfected cells (UniProt Q92956 39-283, limits assumed)
T5 construct: whole, on cells
T5 sequence (looked up): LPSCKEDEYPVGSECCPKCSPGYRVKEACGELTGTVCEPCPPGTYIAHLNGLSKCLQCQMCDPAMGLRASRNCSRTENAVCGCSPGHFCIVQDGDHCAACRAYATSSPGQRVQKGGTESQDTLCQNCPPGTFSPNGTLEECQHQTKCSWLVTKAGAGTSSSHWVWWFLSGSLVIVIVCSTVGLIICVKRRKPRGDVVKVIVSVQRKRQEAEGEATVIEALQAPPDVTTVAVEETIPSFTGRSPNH
Experimental: as §1

[6] = molecular target: T6, BCMA on transiently transfected cells (UniProt Q02223 1-184, limits assumed)
T6 construct: whole, on cells
T6 sequence (looked up): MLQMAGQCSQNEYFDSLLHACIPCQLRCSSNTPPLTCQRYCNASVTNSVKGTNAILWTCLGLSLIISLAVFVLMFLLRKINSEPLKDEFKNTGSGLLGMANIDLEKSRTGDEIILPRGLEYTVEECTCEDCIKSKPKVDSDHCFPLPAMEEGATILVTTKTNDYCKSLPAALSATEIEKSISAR
Experimental: as §1

[7] = molecular target: T7, AITR on transiently transfected cells (UniProt Q9Y5U5 26-241, limits assumed)
T7 construct: whole, on cells
T7 sequence (looked up): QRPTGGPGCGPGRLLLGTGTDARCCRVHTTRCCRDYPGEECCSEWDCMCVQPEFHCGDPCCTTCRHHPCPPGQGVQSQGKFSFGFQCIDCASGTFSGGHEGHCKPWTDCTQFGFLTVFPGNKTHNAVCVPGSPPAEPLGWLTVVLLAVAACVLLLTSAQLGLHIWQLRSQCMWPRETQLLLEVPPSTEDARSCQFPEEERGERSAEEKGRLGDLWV
Experimental: as §1

[8] = molecular target: T8, LT R (LTβR) on transiently transfected cells (UniProt P36941 31-435, limits assumed)
T8 construct: whole, on cells
T8 sequence (P36941 31-435 limits assumed): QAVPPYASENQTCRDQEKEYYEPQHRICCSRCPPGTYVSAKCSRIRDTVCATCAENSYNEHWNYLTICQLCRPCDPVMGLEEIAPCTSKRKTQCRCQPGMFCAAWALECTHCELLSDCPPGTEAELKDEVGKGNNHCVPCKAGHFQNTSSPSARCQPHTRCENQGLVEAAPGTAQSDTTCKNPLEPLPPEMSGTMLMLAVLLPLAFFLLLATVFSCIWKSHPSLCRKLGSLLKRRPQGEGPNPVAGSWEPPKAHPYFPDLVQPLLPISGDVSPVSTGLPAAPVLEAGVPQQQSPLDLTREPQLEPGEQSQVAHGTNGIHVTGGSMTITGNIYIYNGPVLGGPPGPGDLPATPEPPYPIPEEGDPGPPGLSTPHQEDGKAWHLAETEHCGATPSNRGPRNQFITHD
Experimental: as §1

Measured: binding result

B1: FLAG-tagged soluble form of TNF-gamma-beta (aa 72-251) (ligand)
chain: LKGQEFAPSHQQVYAPLRADGDKPRAHLTVVRQTPTQHFKNQFPALHWEHELGLAFTKNRMNYTNKFLLIPESGDYFIYSQVTFRGMTSECSEIRQAGRPNKPDSITVVITKVTDSYPEPTQLLMGTKSVCEVGSNWFQPIYLGAMFSLQEGDKLMVNVSDISLVDYTKEDKTFFGAFLL
notes: also called FLAG-TL1β; FLAG-TNF-gamma-beta; not shown: FLAG tag of the pFLAG-CMV-1 vector at the amino terminus
no binding: all assays above
